Experimental data: patent US20200071424A1 (SHIONOGI, published 2020)
Where a chain is given by its changes, count along the chain named.

T1: human [1-305]-mouse chimeric EL (human; mouse, UniProt Q9WVG5 306-500)
T1 construct: Heparin extract, captured or detected by an anti-C2-tag antibody; also called human-mouse chimeric EL
T1 sequence: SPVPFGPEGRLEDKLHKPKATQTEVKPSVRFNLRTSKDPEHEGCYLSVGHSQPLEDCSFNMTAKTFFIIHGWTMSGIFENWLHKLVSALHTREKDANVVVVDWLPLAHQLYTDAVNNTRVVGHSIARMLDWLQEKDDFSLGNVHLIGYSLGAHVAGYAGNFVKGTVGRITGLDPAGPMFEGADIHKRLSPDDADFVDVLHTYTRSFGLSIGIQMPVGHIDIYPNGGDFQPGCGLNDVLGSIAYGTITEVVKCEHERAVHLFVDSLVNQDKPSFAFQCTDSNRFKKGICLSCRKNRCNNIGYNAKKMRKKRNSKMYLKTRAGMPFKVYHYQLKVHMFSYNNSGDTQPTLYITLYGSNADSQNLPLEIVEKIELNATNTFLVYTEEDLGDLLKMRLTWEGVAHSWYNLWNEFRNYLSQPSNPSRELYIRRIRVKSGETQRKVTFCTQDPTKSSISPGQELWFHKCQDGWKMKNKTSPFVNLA

T2: human LPL (lipoprotein lipase) (human, UniProt P06858 28-475)
T2 sequence (looked up): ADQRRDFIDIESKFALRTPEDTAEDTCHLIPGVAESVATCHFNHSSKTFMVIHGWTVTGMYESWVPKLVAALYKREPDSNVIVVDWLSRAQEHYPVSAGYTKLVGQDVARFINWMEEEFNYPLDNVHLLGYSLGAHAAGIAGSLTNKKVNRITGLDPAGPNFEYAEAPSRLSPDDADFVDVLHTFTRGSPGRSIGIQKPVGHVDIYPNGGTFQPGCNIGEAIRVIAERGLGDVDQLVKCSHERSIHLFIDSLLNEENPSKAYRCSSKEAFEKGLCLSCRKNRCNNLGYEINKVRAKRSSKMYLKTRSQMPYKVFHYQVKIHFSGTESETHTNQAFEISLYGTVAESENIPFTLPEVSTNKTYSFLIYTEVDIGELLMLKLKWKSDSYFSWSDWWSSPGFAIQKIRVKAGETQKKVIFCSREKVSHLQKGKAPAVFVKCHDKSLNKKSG

T3: human HL (hepatic lipase) (human, UniProt P11150 23-499)
T3 sequence (looked up): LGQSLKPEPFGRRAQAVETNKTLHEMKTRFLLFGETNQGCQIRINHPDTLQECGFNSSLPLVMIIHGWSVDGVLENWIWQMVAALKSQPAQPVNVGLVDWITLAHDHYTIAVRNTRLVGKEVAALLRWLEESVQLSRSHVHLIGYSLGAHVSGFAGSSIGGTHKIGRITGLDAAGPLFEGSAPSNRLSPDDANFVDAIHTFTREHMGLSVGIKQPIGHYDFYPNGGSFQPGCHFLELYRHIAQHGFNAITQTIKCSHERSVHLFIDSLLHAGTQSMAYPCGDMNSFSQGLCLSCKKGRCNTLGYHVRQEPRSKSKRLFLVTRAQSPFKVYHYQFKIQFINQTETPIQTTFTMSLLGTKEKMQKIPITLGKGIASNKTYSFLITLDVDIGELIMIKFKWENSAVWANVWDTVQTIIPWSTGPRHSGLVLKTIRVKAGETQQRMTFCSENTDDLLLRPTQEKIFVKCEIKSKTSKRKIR

T4: human EL (vascular endothelial lipase) (human, UniProt Q9Y5X9 21-500)
T4 sequence: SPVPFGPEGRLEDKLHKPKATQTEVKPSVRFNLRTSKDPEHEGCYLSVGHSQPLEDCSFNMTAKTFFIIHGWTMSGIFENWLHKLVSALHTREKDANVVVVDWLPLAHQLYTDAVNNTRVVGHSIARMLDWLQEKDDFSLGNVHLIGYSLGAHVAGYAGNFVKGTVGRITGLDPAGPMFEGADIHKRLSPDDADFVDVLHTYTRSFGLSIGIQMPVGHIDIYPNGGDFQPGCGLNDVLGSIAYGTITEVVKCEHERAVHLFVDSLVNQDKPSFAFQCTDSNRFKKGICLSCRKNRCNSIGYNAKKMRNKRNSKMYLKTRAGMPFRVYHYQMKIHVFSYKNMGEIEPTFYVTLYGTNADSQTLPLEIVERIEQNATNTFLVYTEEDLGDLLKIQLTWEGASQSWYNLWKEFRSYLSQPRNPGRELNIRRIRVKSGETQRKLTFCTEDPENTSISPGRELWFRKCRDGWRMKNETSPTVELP

T5: mouse EL (mouse, UniProt Q9WVG5 21-500)
T5 sequence (looked up): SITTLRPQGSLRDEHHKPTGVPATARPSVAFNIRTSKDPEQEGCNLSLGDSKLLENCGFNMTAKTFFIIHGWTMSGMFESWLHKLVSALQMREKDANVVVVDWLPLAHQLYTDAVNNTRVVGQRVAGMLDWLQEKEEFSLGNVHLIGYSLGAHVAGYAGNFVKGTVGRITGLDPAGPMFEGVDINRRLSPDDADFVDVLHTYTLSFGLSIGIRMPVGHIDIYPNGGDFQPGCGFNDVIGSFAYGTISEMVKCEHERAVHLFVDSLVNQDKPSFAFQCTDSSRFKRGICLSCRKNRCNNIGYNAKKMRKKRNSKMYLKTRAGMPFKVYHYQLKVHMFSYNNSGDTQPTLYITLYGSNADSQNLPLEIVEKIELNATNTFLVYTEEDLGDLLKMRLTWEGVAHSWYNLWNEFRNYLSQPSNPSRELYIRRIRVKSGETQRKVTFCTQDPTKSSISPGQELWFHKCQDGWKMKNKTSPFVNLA

B1: h55A1-S1 (antibody, V domains shown)
VH: QVQLVQSGSELKKPGASVKVSCKASGYTFTNYGMNWVRQAPGQGLEWMGWINTYSGVPTYAGDFKGRFVFSLDTSVSTAYLQISSLKAEDTAVYYCARRGYYGRRYFDVWGKGTTVTVSS
VL: DIVLTQSPASLAVSPGQRATITCKASQSVDYDVDSYMHWYQQKPGQPPKLLIYAASNLASGVPARFSGSGSGTDFTLTINPVEANDTANYYCQQTIEDPPTFGGGTKVEIK
notes: humanized
B2: h16B3-S2 (antibody, V domains shown)
VH: EVQLVESGGGLVQPGGSLRLSCAASGFTFSGYTMSWVRQAPGKGLEWVSEISFARDRAFYPDTVKGRFTISRDNSKNTLYLQMNSLRAEDTAVYYCARLGGRNHDYWYFDVWGQGTTVTVSS
VL: DIVMTQSPDSLAVSLGERATINCRASESVEYYGTSLMQWYQQKPGQPPKLLIYAASNVESGVPDRFSGSGSGTDFTLTISSLQAEDVAVYYCQQSWKVPFTFGQGTKLEIK
notes: humanized
B3: h13B3-S1 (antibody, V domains shown)
VH: QVQLVQSGAEVKKPGASVKVSCKASGYTFTEYTMHWVRQAPGQGLEWMGSINPYYGGTSYNEKFKDRVTMTRDTSTSTVYMELSSLRSEDTAVYYCARYGNYVGYFDYWGQGTTVTVSS
VL: EIVLTQSPGTLSLSPGERATLSCRASSSVHYMYWYQQKPGQAPRLLIYYTSNLAPGIPDRFSGSGSGTDFTLTISRLEPEDFAVYYCQQFTSSPYTFGGGTKVEIK
B4: h23H8-S2 (antibody, V domains shown)
VH: QVQLVQSGAEVKKPGASVKVSCKASGYTFTDNTIHWVRQAPGQGLEWMGHINPYYGGTNNNEKFKDRVTMTRDTSISTAYMELSRLRSDDTAVYYCARKGIYYSSPFDYWGQGTTVTVSS
VL: DIQMTQSPSSLSASVGDRVTITCRASQDINNYLNWYQQKPGKAPKLLISYTSKLHSGVPSRFSGSGSGTDFTLTISSLQREDFATYYCQQGNTLPFTFGQGTKLEIK
B5: h53A11-S1 (antibody, V domains shown)
VH: QVQLVQSGAEVKKPGASVKVSCKASGYTFTDYTMHWVRQAPGQRLEWMGGINPYYGGTTYNEKFKDRVTITRDTSASTAYMELSSLRSEDTAVYYCAKGDYYGGSYNYWGQGTTVTVSS
VL: EIVMTQSLATLSVSPGERATLSCRASQDISNSLHWYQQKPGQAPRLLIKYASQSISGIPARFSGSGSGTEFTLTISSLQSEDFAVYYCQQSNSWPYTFGQGTKLEIK
B6: h16F6-S2 (antibody, V domains shown)
VH: QVQLVQSGAEVKKPGASVKVSCKASGYTFTTYWIAWVRQAPGQGLEWMGEILPGSAKTKYNKKFKGRVTMTRDTSTSTVYMELSSLRSEDTAVYYCAVYDYGADYWGQGTTVTVSS
VL: DIQMTQSPSSLSASVGDRVTITCKASQDVYTAVAWYQQKPGKSPKLLIYSASYRFTGVPSRFSGSGAGTDFTLTISSLQPEDFATYYCQQHYSIPRTFGGGTKVEIK
B7: h16F6-S4 (antibody, V domains shown)
VH: B6 VH
VL: B6 VL with S63T, L73F
B8: h16F6-S5 (antibody, V domains shown)
VH: B6 VH
VL: B6 VL with T20S, S63T, L73F
B9: h16F6-S3 (antibody, V domains shown)
VH: B6 VH
VL: B6 VL with S63T

These binders were tested against T6, cynomolgus monkey EL (cynomolgus monkey) (assay: Biacore; EL captured by anti-C2-tag Ab; bivalent fit).
T6 construct: Heparin extract; also called cynomolgus EL; Cynomolgus EL
Experimental: (§1) The binding affinities of anti-EL antibodies were measured using Biacore. […] Then, anti-EL humanized antibodies were added and the binding affinities were calculated by bivalent fitting of BIAevaluation software.

| Kd [nM] | koff [s⁻¹] | kon [M⁻¹ s⁻¹] | Binder |
| --- | --- | --- | --- |
| 0.59 | 0.00026 | 440000 | B1 |
| 2 | 0.0001 | 51000 | B2 |

Each binder was assayed against T1, human [1-305]-mouse chimeric EL in the same assay as above.
Experimental: as §1

| Kd [nM] | koff [s⁻¹] | kon [M⁻¹ s⁻¹] | Binder |
| --- | --- | --- | --- |
| 31 | 0.00086 | 27000 | B1 |
| 9.3 | 0.00022 | 24000 | B2 |

These binders were tested against T2, human LPL (lipoprotein lipase) (assay: cell-based or functional assay).

| Neutralizing activity IC50 [nM] | Binder |
| --- | --- |
| > 400 | B3 |
| > 400 | B4 |
| > 1800 | B1 |
| > 400 | B5 |
| > 400 | B2 |

What follows are binders tested against T3, human HL (hepatic lipase) (assay: cell-based or functional assay).

| Neutralizing activity IC50 [nM] | Binder |
| --- | --- |
| > 400 | B3 |
| > 400 | B4 |
| > 1800 | B1 |
| > 400 | B5 |
| > 400 | B2 |

What follows are binders tested against T4, human EL (vascular endothelial lipase) (assay: cell-based or functional assay).

| Neutralizing activity IC50 [nM] | Binder |
| --- | --- |
| 2.3 | B3 |
| 4.5 | B4 |
| 3.9 | B1 |
| 9.7 | B5 |
| 4.6 | B2 |

These binders were tested against T6, cynomolgus monkey EL (assay: cell-based or functional assay).

| Neutralizing activity IC50 [nM] | Binder |
| --- | --- |
| 1.6 | B1 |
| 1.9 | B2 |

These binders were tested against T1, human [1-305]-mouse chimeric EL (assay: cell-based or functional assay).

| Neutralizing activity IC50 [nM] | Binder |
| --- | --- |
| 3 | B3 |
| 1.7 | B4 |
| 2.2 | B1 |
| 2.1 | B5 |
| 5.3 | B2 |

These binders were tested against baboon EL (baboon) (assay: cell-based or functional assay).

| Neutralizing activity IC50 [nM] | Binder |
| --- | --- |
| 3.3 | B6 |
| 2.6 | B7 |
| 2 | B8 |
| 3.1 | B9 |

Each binder was assayed against T5, mouse EL (assay: cell-based or functional assay).

| Neutralizing activity IC50 [nM] | Binder |
| --- | --- |
| 3 | B6 |
| 2 | B7 |
| 2.1 | B8 |
| 3.3 | B9 |
